The results in this text go back to PMC5035970.

Data set [1] deals with RSV Gag∆PR (Rous sarcoma virus, Prague C strain). Briefly: FA salt titration.
In data set [2] the test system is HIV-1 Gag∆p6 (HIV-1). Briefly: FA salt titration.
Data set [3] relates to R155H (Rous sarcoma virus (Prague C) / HIV-1 chimera). Briefly: FA salt titration.
Data set [4] has as its system H132R (HIV-1 / Rous sarcoma virus chimera). Briefly: FA salt titration.
Data set [5] relates to RSV Gag∆PR (Rous sarcoma virus, Prague C strain). Briefly: fluorescence anisotropy. In general terms: Polarisation of emitted light reports the rotation of a fluorescent probe.
Data set [6] concerns RSV CANC (Rous sarcoma virus, Prague C strain). Briefly: FA salt titration.
The test system of data set [7] is HIV-1 Gag∆p6 (HIV-1). Briefly: fluorescence anisotropy.
For data set [8], the system named is H132R (HIV-1 / Rous sarcoma virus chimera). Briefly: fluorescence anisotropy.

By Kd is commonly meant a measure of binding affinity in units of concentration. Regarding RSV MΨ A197G, in data set [1], the Kd stood at 0.047 mM.
Take HIV-1 Ψ-WT: the Kd in the data set with HIV-1 Gag∆p6 (HIV-1) [2] is 0.036 mM; in data set [1], 32 mM; in data set [3], 0.031 mM; in data set [4], 19 mM; in data set [5] it was 14 nM.
Take RSV MΨ WT: the Kd was found to be 0.055 mM with HIV-1 Gag∆p6 (HIV-1) [2]; 0.013 mM in data set [6]; 0.071 mM in data set [1]; 0.067 mM in data set [3]; 0.072 mM in data set [4]; 14 nM with HIV-1 Gag∆p6 (HIV-1) [7]. Moreover, the Kd in data set [8] was determined as 13 nM.
Regarding RSV MΨ GG to CC, the Kd in data set [1] is 0.49 mM.
Turning to RSV MΨ UGCG to GAGA, in data set [1], the Kd amounted to 0.012 mM.
Regarding HIV-1 TARpolyA, the Kd came out at 560 mM in the data set on HIV-1 Gag∆p6 (HIV-1) [2]; 40 mM in data set [1]; 2600 mM in data set [3]; 290 mM in data set [4]; 18 nM in data set [5].
